The values below are quoted from earlier work in PMC8894873.

The target in this data set is Glu66 (UniProt position 148, FTKKMEENAKK). The experiment in a line: stability (inferred; the article mentions only a pH dependence of stability).

In general, pKa refers to the negative logarithm of the acid dissociation constant. For the substance “Staphylococcal nuclease V66E variant (Staphylococcus aureus; V66E)”, the pKa was 8.8.
